Source: article PMC2857867

Molecular target: VACV strain WR IFNα/βBP B18 (vaccinia virus strain Western Reserve), P25213
Test: SPR
Conditions: remark: other sources report otherwise

B1: hIL-29, Q8IU54 20-200 (ligand)
chain: GPVPTSKPTTTGKGCHIGRFKSLSPQELASFKKARDALEESLKLKNWSCSSPVFPGNWDLRLLQVRERPVALEAELALTLKVLEAAAGPALEDVLDQPLHTLHHILSQLQACIQPQPTAGPRPRGRLHHWLHRLQEAPKKESAGCLEASVTFNLFRLLTRDLKYVADGNLCLRTSTHPEST
Binder B1 has a Kd of 13.5 nM and a kon of 193000 M⁻¹ s⁻¹.
